Data as given in paper PMC6353875, “The EZH2 SANT1 domain is a histone reader providing sensitivity to the modification state of the H4 tail” (Scientific Reports, 2019).

Biological target: EZH2 SRM-SANT1 (residues 141–251) (human) (UniProt Q15910)
Assay: NMR titration; 15N-HSQC spectra of 0.05–0.10 mM 15N-EZH2 SRM-SANT1 with increasing concentrations of histone peptide; 25 °C; Kd from normalized CSPs, one-site model accounting for ligand depletion, averaged over significantly perturbed residues

Sequence of EZH2 SRM-SANT1 (residues 141–251) (human) (Q15910 141-251): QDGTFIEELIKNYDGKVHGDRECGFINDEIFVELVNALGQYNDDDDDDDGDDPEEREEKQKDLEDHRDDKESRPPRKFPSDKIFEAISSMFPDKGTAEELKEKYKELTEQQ

unmodified histone H4 peptide (residues 1–21) (from UniProt P62805 2-22)
Kd: 300 µM
